{
  "source": "patent US20240270821A1",
  "about": "“GIP/GLP1/GCG TRI-RECEPTOR AGONISTS AND USES THEREOF” (priority 2023, published 2024)",
  "binders": {"B1": {"name": "Example 1198 (peptide)", "chain": "YXQGTXTSDXXIXLDXKAQXEFIEXLIEGGPPSXXPPPSGSE", "modifications": "non-natural residues; lysine acylated AEEA-γGlu-C18 diacid; C-terminal amide; synthetic construct; SITE 2: note = 2-Aminoisobutyric Acid; SITE 6: note = alpha-methyl-2-fluoro-L-phenylalanine; SITE 10: note = 3-(4-Pyridyl)-L-alanine; SITE 11: note = alpha-methyl-L-serine; SITE 13: note = alpha-methyl-leucine; SITE 16: note = L-ornithine; SITE 17: note = Lysine is chemically mo"}, "B2": {"name": "Example 1200 (peptide)", "chain": "B1 chain with X35E", "modifications": "non-natural residues, acylated Lys (AEEA-γGlu-C18 diacid), C-terminal amide; synthetic construct; SITE 2: note = 2-Aminoisobutyric Acid; SITE 6: note = alpha-methyl-2-fluoro-L-phenylalanine; SITE 10: note = 3-(4-Pyridyl)-L-alanine; SITE 11: note = alpha-methyl-L-serine; SITE 13: note = alpha-methyl-leucine; SITE 16: note = L-ornithine; SITE 17: note = Lysine is chemically mo"}, "B3": {"name": "Example 1197 (peptide)", "chain": "YXQGTXTSDXXIXLDXKAQXEFIEXLIEGGPPSXXPPPXGGGE", "modifications": "Lys acylated AEEA-γGlu-C18 diacid; non-natural residues; C-amide; synthetic construct; SITE 2: note = 2-Aminoisobutyric Acid; SITE 6: note = alpha-methyl-2-fluoro-L-phenylalanine; SITE 10: note = 3-(4-Pyridyl)-L-alanine; SITE 11: note = alpha-methyl-L-serine; SITE 13: note = alpha-methyl-leucine; SITE 16: note = L-ornithine; SITE 17: note = Lysine is chemically mo"}, "B4": {"name": "Example 1199 (peptide)", "chain": "B3 chain with X39S", "modifications": "Lys acylated with AEEA-γGlu-C18 diacid; non-natural residues; C-amide; synthetic construct; SITE 2: note = 2-Aminoisobutyric Acid; SITE 6: note = alpha-methyl-2-fluoro-L-phenylalanine; SITE 10: note = 3-(4-Pyridyl)-L-alanine; SITE 11: note = alpha-methyl-L-serine; SITE 13: note = alpha-methyl-leucine; SITE 16: note = L-ornithine; SITE 17: note = Lysine is chemically mo"}, "B5": {"name": "Example 1201 (peptide)", "chain": "B3 chain with X35E, X39S", "modifications": "non-natural residues; acylated Lys; C-terminal amide; synthetic construct; SITE 2: note = 2-Aminoisobutyric Acid; SITE 6: note = alpha-methyl-2-fluoro-L-phenylalanine; SITE 10: note = 3-(4-Pyridyl)-L-alanine; SITE 11: note = alpha-methyl-L-serine; SITE 13: note = alpha-methyl-leucine; SITE 16: note = L-ornithine; SITE 17: note = Lysine is chemically mo"}, "B6": {"name": "Example 1183 (peptide)", "chain": "YXQGTFTSDXXQXLDXKAQXQFIQXLIEXGPSSGEPPPSGGGE", "modifications": "non-natural residues; lipidated Lys; C-terminal amide; synthetic construct; SITE 2: note = 2-Aminoisobutyric Acid; SITE 10: note = 3-(4-Pyridyl)-L-alanine; SITE 11: note = alpha-methyl-L-serine; SITE 13: note = alpha-methyl-leucine; SITE 16: note = L-ornithine; SITE 17: note = Lysine is chemically modified through conjugation of the epsilon-amino group"}, "B7": {"name": "Example 1184 (peptide)", "chain": "B6 chain with Q24E", "modifications": "non-natural residues; Lys acylated with γGlu-C18 diacid; C-terminal amide; synthetic construct; SITE 2: note = 2-Aminoisobutyric Acid; SITE 10: note = 3-(4-Pyridyl)-L-alanine; SITE 11: note = alpha-methyl-L-serine; SITE 13: note = alpha-methyl-leucine; SITE 16: note = L-ornithine; SITE 17: note = Lysine is chemically modified through conjugation of the epsilon-amino group"}, "B8": {"name": "Example 1188 (peptide)", "chain": "B6 chain with X29G", "modifications": "not fully specified; non-natural residues, lipidated Lys, C-terminal amide; synthetic construct; SITE 2: note = 2-Aminoisobutyric Acid; SITE 10: note = 3-(4-Pyridyl)-L-alanine; SITE 11: note = alpha-methyl-L-serine; SITE 13: note = alpha-methyl-leucine; SITE 16: note = L-ornithine; SITE 17: note = Lysine is chemically modified through conjugation of the epsilon-amino group"}, "B9": {"name": "Example 1186 (peptide)", "chain": "B6 chain with E35A", "modifications": "not fully specified; Aib, 4Pal, Me4Pal, alpha-methyl residues, Orn, lipidated Lys, amide; synthetic construct; SITE 2: note = 2-Aminoisobutyric Acid; SITE 10: note = 3-(4-Pyridyl)-L-alanine; SITE 11: note = alpha-methyl-L-serine; SITE 13: note = alpha-methyl-leucine; SITE 16: note = L-ornithine; SITE 17: note = Lysine is chemically modified through conjugation of the epsilon-amino group"}, "B10": {"name": "Example 1185 (peptide)", "chain": "B6 chain with Q24E, E28A, E35A", "modifications": "not fully specified; non-natural residues; Lys acylated with γGlu-C18 diacid; C-terminal amide; synthetic construct; SITE 2: note = 2-Aminoisobutyric Acid; SITE 10: note = 3-(4-Pyridyl)-L-alanine; SITE 11: note = alpha-methyl-L-serine; SITE 13: note = alpha-methyl-leucine; SITE 16: note = L-ornithine; SITE 17: note = Lysine is chemically modified through conjugation of the epsilon-amino group"}, "B11": {"name": "Example 1187 (peptide)", "chain": "B6 chain with Q24E, E35A", "modifications": "not fully specified; acylated lysine γGlu-C18 diacid; non-natural residues; C-terminal amide; synthetic construct; SITE 2: note = 2-Aminoisobutyric Acid; SITE 10: note = 3-(4-Pyridyl)-L-alanine; SITE 11: note = alpha-methyl-L-serine; SITE 13: note = alpha-methyl-leucine; SITE 16: note = L-ornithine; SITE 17: note = Lysine is chemically modified through conjugation of the epsilon-amino group"}},
  "note": "Positions count from the first letter of the chain named.",
  "data": [
    {"target": "hGLP-1R (Homo sapiens, UniProt P43220)", "sequence (P43220 24-463)": "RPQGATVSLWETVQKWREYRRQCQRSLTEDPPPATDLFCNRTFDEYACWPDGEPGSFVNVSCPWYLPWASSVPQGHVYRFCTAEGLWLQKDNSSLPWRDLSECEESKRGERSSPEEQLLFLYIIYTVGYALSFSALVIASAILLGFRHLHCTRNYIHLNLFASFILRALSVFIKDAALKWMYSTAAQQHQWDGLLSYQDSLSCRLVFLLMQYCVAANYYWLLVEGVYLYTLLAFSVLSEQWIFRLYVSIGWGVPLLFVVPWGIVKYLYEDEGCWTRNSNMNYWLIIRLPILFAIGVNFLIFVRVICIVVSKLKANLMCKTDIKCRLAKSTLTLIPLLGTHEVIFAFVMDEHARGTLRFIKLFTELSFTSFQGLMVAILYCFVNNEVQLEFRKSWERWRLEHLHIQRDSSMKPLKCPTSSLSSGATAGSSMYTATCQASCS", "assay": "cell-based or functional assay", "units": {"Relative cAMP EC50": "nM", "cAMP Rel EC50 (in the presence of 1% HSA)": "nM"}, "values": [
      {"binder": "B1", "Relative cAMP EC50": 0.475, "cAMP Rel EC50 (in the presence of 1% HSA)": 61},
      {"binder": "B2", "Relative cAMP EC50": 0.727, "cAMP Rel EC50 (in the presence of 1% HSA)": 91.4},
      {"binder": "B3", "Relative cAMP EC50": 0.407, "cAMP Rel EC50 (in the presence of 1% HSA)": 46.1},
      {"binder": "B4", "Relative cAMP EC50": 0.5, "cAMP Rel EC50 (in the presence of 1% HSA)": 63.9},
      {"binder": "B5", "Relative cAMP EC50": 0.888, "cAMP Rel EC50 (in the presence of 1% HSA)": 93.9},
      {"binder": "B6", "Relative cAMP EC50": 0.769, "cAMP Rel EC50 (in the presence of 1% HSA)": 53.6},
      {"binder": "B7", "Relative cAMP EC50": 1.18, "cAMP Rel EC50 (in the presence of 1% HSA)": 179},
      {"binder": "B8", "Relative cAMP EC50": 1.01, "cAMP Rel EC50 (in the presence of 1% HSA)": 77.1},
      {"binder": "B9", "Relative cAMP EC50": 0.594, "cAMP Rel EC50 (in the presence of 1% HSA)": 52.1},
      {"binder": "B10", "Relative cAMP EC50": 0.762, "cAMP Rel EC50 (in the presence of 1% HSA)": 66.1},
      {"binder": "B11", "Relative cAMP EC50": 1.06, "cAMP Rel EC50 (in the presence of 1% HSA)": 154}
    ]},
    {"target": "T1, human GIP receptor (human) (UniProt P48546)", "T1 sequence (looked up)": "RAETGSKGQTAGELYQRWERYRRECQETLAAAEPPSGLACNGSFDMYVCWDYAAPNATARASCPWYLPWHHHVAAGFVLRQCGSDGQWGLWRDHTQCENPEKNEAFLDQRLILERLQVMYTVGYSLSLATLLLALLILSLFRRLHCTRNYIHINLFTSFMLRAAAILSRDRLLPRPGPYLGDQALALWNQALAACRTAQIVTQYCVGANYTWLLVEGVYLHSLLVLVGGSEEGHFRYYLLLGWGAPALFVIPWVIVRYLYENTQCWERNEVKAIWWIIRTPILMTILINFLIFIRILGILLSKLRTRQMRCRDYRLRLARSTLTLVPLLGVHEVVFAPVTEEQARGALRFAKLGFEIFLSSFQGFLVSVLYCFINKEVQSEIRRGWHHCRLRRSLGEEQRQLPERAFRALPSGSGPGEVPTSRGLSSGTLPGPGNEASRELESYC", "assay": "cell-based or functional assay", "units": {"Relative cAMP EC50": "nM", "cAMP Rel EC50 (in the presence of 1% HSA)": "nM"}, "values": [
      {"binder": "B1", "Relative cAMP EC50": 0.00663, "cAMP Rel EC50 (in the presence of 1% HSA)": 0.67},
      {"binder": "B2", "Relative cAMP EC50": 0.00883, "cAMP Rel EC50 (in the presence of 1% HSA)": 0.896},
      {"binder": "B3", "Relative cAMP EC50": 0.00666, "cAMP Rel EC50 (in the presence of 1% HSA)": 0.639},
      {"binder": "B4", "Relative cAMP EC50": 0.0076, "cAMP Rel EC50 (in the presence of 1% HSA)": 0.733},
      {"binder": "B5", "Relative cAMP EC50": 0.00959, "cAMP Rel EC50 (in the presence of 1% HSA)": 1.02},
      {"binder": "B6", "Relative cAMP EC50": 0.0484, "cAMP Rel EC50 (in the presence of 1% HSA)": 3.16},
      {"binder": "B7", "Relative cAMP EC50": 0.071, "cAMP Rel EC50 (in the presence of 1% HSA)": 8.39},
      {"binder": "B8", "Relative cAMP EC50": 0.0914, "cAMP Rel EC50 (in the presence of 1% HSA)": 7.02},
      {"binder": "B9", "Relative cAMP EC50": 0.0404, "cAMP Rel EC50 (in the presence of 1% HSA)": 3.17},
      {"binder": "B10", "Relative cAMP EC50": 0.0266, "cAMP Rel EC50 (in the presence of 1% HSA)": 2.31},
      {"binder": "B11", "Relative cAMP EC50": 0.0648, "cAMP Rel EC50 (in the presence of 1% HSA)": 7.11}
    ]},
    {"target": "human glucagon receptor (human) (UniProt P47871)", "sequence (P47871 26-477)": "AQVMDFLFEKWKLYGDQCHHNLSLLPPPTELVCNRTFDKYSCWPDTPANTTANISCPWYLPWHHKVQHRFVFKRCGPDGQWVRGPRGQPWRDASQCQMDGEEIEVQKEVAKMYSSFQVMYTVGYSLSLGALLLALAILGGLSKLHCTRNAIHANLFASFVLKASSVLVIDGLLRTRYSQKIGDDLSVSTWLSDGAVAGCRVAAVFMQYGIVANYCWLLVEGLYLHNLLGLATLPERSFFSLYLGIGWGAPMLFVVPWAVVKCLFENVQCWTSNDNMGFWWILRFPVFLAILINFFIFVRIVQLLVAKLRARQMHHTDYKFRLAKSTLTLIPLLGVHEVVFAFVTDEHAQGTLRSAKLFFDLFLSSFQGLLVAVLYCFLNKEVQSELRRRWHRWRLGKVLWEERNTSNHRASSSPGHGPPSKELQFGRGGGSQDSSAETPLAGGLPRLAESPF", "assay": "cell-based or functional assay", "units": {"Relative cAMP EC50": "nM", "cAMP Rel EC50 (in the presence of 1% HSA)": "nM"}, "values": [
      {"binder": "B1", "Relative cAMP EC50": 1.8, "cAMP Rel EC50 (in the presence of 1% HSA)": 314},
      {"binder": "B2", "Relative cAMP EC50": 1.5, "cAMP Rel EC50 (in the presence of 1% HSA)": 278},
      {"binder": "B3", "Relative cAMP EC50": 1.88, "cAMP Rel EC50 (in the presence of 1% HSA)": 288},
      {"binder": "B4", "Relative cAMP EC50": 2.05, "cAMP Rel EC50 (in the presence of 1% HSA)": 352},
      {"binder": "B5", "Relative cAMP EC50": 1.76, "cAMP Rel EC50 (in the presence of 1% HSA)": 234},
      {"binder": "B6", "Relative cAMP EC50": 1.38, "cAMP Rel EC50 (in the presence of 1% HSA)": 127},
      {"binder": "B7", "Relative cAMP EC50": 1.5, "cAMP Rel EC50 (in the presence of 1% HSA)": 295},
      {"binder": "B8", "Relative cAMP EC50": 1.16, "cAMP Rel EC50 (in the presence of 1% HSA)": 130},
      {"binder": "B9", "Relative cAMP EC50": 1.46, "cAMP Rel EC50 (in the presence of 1% HSA)": 164},
      {"binder": "B10", "Relative cAMP EC50": 1.64, "cAMP Rel EC50 (in the presence of 1% HSA)": 206},
      {"binder": "B11", "Relative cAMP EC50": 1.81, "cAMP Rel EC50 (in the presence of 1% HSA)": 370}
    ]}
  ]
}
